Laboratory results as given in patent US20160184454A1, “RAB7L1 INTERACTS WITH LRRK2 TO MODIFY INTRANEURONAL PROTEIN SORTING AND PARKINSON'S DISEASE RISK” (THE TRUSTEES OF COLUMBIA UNIVERSITY IN THE CITY OF NEW YORK, priority 2013, published 2016).

Experiments:
[1] = test system: Drosophila dopamine neurons; assay: Surviving dopaminergic neurons in PPM1 and PPL1 clusters of Drosophila CNS mushroom bodies; type: in vivo; conditions: co-expression with LRRK2 G2019S
[2] = test system: rat primary cortical neurons; assay: Neurite length assay in transfected primary cortical neuron cultures; type: cell-based; conditions: for LRRK2 mutation-induced neurite length phenotype: co-transfection with LRRK2 G2019S (0.5 μg/well), test vector 1 μg/well
Text: As 5 candidate genes are present within the PARK16 locus (SLC45A3, NUCKS, RAB7L1, SLC41A1, and PM20D1), each of the genes were experimentally screened for a functional interaction with LRRK2 (FIG. 2A). A previously-described primary rat neuron in vitro culture model was used, in which transient expression of familial PD-associated LRRK2 G2019S or R1441C mutant alleles leads to a marked reduction in neurite process length (MacLeod et al., 2006). […] RAB7L1 is a small cytosolic GTPase, structurally distinct from RAB7 despite its name (also known as RAB29) (Shimizu et al., 1997). […] But the function of RAB7L1 in CNS neurons remains unknown. Orthologues of RAB7L1 in other organisms, including C. elegans Glo-1 and Drosophila melanogaster Lighloid, have been implicated in trafficking to lysosome-related organelles (Hermann et al., 2005) and in the regulation of neurite process length (Grill et al., 2007), reminiscent of LRRK2 mutant phenotypes (MacLeod et al., 2006). Thus this gene was of particular interest.
Sprague-Dawley rat or mouse PI primary dissociated cortical cultures were prepared and transfected essentially as described (Xia et al., 1996) with the following modifications: cells were plated at high density, approximately 250,000 cells/cm2, in 24-well plates with 500 ul medium/well. Culture medium used for plating cells was Neurobasal-A supplemented with 2% B-27 and 10% FBS. At 1 day after plating, medium was changed to reduced serum (1% FBS+added antimitotic agents: 70 μM uridine and 25 μM 5-fluorodeoxyuridine) and replaced weekly thereafter; for transfections no DMSO was added to the transfection mixture, cells were not subjected to glycerol shock, and a total of 3 μg plasmid DNA was used per well. Cells were fixed in 4% PFA and immunostained with mouse α-RAB7L1 (Santa Cruz, 1:100), and rabbit monoclonal α-LRRK2 (Michal J. Fox Foundation MJFF4, 1:100), then with appropriate fluorescent secondaries (Jackson, 1:1000-2000). Neurite length and neurite puncta (defined as swellings greater than 2 um in diameter) were counted for at least 20 neurons per condition. Mean puncta number per neuron was normalized to total average neurite length versus wild-type LRRK2 transfected cells. Fluorescent microscopy was performed using a Nikon TE 2000-S microscope and a Zeiss LSM510 Meta confocal microscope. Images were analyzed using Image-Pro Plus (Mediacybernetics) software version 5.1.0.20.

[3] = test system: primary rat cortical neurons; assay: MPR sorting / colocalization analysis (Golph4, LAMP2, EEA1) in primary neurons; type: cell-based; conditions: in the context of LRRK2 G2019S expression
Text: A cellular role for the LRRK2-RAB7L1 pathway was investigated. Prior studies have broadly implicated both of these gene products in intracellular sorting (Sakaguchi-Nakashima et al., 2007; Spano et al., 2011). Expression of the LRRK2 G2019S clinical mutation in rat primary neurons induced lysosomal swelling, as quantified by immunostaining for the lyosomal marker LAMP2 or using the lysosomotropic dye Lysotracker, consistent with prior work and other studies (Dodson et al., 2012; MacLeod et al., 2006; Stafa et al., 2012) (FIG. 6A). In addition to lysosomal enlargement, there was significant reduction in lysosomal accumulation of the cation-independent mannose 6-phosphate receptor (MPR) in terms of the fraction of LAMP2-positive structures stained with MPR. As MPR is required also for the recruitment of lysosomal hydrolases, its deficiency is predicted to lead to functional lysosomal deficits.
MPR is typically recycled between the endolysosome compartment and the Golgi apparatus by the retromer complex (Arighi et al., 2004; Bonifacino and Hurley, 2008; Seaman, 2009; St. George-Hyslop et al., 2009). […]
Primary rat cortical neurons were cultured on glass coverslips, transfected, and fixed as previously described in this methods section. […] Images were analysed using NIH ImageJ software version 1.45.

LRRK2 = target: T1, LRRK2 (Homo sapiens, UniProt Q5S007); assay: Co-immunoprecipitation of LRRK2 and RAB7L1 from transfected HEK293T cells; type: binding; conditions: HEK293T lysates, 3×Flag-LRRK2 and GFP-RAB7L1, 48 hrs
T1 construct: Plasmids encoding full-length human LRRK2 (wild-type, G2019S, K1906M) tagged with 3×FLAG at the N-terminus were used; expressed in transfected cells; host or cells: HEK293T
Description: Next more direct evidence of a physical interaction between LRRK2 and RAB7L1 was sought and thus co-immunoprecipitation studies were performed. Epitope-tagged forms of LRRK2 and RAB7L1 (3×Flag-LRRK2 and GFP-RAB7L1) were co-transfected into HEK293T cells, and after 48 hrs, cell lysates were immunoprecipitated with an anti-Flag antibody and then probed for RAB7L1. […] Similarly, immunoprecipitation of RAB7L1 with an antibody to the GFP tag co-precipitated LRRK2 only in the presence of RAB7L1-GFP (FIG. 3B). To probe for an interaction between LRRK2 and RAB7L1 in a more physiological context, RAB7L1 protein was examined in brain lysates from transgenic mice that harbor human wild-type LRRK2 or a familial PD mutant form of LRRK2, R1441C, within a large bacterial artificial chromosome (BAC) construct. Transgenic LRRK2 is broadly expressed throughout the CNS of these mice, although at relatively low levels (FIG. 10A). Brain tissue lysates were immunoprecipitated for LRRK2 protein with a rabbit monoclonal antibody.
For cultured cells, HEK293T cells transfected for 48 hours were lysed with lysis buffer containing 0.5% Triton-X. 1 mM EDTA and protease inhibitor cocktail (Sigma). The lysates were rotated at 4° C. for 1 hr followed by centrifugation at 20,000 g for 5 min. […]

[4] = target: T2, human wild-type LRRK2 (BAC transgene, mouse brain) (human, UniProt Q5S007 1-2527); assay: immunoprecipitation of LRRK2 with a rabbit monoclonal antibody from transgenic mouse brain lysates, Western blot for RAB7L1
T2 construct: Untagged human LRRK2 expressed from a BAC construct in transgenic mice; It was immunoprecipitated from whole brain lysate with an anti-LRRK2 antibody; The lysate also holds endogenous mouse LRRK2; also called LRRK2 wild type transgenic (WT); LRRK2-WT
T2 sequence (Q5S007 whole entry R50H): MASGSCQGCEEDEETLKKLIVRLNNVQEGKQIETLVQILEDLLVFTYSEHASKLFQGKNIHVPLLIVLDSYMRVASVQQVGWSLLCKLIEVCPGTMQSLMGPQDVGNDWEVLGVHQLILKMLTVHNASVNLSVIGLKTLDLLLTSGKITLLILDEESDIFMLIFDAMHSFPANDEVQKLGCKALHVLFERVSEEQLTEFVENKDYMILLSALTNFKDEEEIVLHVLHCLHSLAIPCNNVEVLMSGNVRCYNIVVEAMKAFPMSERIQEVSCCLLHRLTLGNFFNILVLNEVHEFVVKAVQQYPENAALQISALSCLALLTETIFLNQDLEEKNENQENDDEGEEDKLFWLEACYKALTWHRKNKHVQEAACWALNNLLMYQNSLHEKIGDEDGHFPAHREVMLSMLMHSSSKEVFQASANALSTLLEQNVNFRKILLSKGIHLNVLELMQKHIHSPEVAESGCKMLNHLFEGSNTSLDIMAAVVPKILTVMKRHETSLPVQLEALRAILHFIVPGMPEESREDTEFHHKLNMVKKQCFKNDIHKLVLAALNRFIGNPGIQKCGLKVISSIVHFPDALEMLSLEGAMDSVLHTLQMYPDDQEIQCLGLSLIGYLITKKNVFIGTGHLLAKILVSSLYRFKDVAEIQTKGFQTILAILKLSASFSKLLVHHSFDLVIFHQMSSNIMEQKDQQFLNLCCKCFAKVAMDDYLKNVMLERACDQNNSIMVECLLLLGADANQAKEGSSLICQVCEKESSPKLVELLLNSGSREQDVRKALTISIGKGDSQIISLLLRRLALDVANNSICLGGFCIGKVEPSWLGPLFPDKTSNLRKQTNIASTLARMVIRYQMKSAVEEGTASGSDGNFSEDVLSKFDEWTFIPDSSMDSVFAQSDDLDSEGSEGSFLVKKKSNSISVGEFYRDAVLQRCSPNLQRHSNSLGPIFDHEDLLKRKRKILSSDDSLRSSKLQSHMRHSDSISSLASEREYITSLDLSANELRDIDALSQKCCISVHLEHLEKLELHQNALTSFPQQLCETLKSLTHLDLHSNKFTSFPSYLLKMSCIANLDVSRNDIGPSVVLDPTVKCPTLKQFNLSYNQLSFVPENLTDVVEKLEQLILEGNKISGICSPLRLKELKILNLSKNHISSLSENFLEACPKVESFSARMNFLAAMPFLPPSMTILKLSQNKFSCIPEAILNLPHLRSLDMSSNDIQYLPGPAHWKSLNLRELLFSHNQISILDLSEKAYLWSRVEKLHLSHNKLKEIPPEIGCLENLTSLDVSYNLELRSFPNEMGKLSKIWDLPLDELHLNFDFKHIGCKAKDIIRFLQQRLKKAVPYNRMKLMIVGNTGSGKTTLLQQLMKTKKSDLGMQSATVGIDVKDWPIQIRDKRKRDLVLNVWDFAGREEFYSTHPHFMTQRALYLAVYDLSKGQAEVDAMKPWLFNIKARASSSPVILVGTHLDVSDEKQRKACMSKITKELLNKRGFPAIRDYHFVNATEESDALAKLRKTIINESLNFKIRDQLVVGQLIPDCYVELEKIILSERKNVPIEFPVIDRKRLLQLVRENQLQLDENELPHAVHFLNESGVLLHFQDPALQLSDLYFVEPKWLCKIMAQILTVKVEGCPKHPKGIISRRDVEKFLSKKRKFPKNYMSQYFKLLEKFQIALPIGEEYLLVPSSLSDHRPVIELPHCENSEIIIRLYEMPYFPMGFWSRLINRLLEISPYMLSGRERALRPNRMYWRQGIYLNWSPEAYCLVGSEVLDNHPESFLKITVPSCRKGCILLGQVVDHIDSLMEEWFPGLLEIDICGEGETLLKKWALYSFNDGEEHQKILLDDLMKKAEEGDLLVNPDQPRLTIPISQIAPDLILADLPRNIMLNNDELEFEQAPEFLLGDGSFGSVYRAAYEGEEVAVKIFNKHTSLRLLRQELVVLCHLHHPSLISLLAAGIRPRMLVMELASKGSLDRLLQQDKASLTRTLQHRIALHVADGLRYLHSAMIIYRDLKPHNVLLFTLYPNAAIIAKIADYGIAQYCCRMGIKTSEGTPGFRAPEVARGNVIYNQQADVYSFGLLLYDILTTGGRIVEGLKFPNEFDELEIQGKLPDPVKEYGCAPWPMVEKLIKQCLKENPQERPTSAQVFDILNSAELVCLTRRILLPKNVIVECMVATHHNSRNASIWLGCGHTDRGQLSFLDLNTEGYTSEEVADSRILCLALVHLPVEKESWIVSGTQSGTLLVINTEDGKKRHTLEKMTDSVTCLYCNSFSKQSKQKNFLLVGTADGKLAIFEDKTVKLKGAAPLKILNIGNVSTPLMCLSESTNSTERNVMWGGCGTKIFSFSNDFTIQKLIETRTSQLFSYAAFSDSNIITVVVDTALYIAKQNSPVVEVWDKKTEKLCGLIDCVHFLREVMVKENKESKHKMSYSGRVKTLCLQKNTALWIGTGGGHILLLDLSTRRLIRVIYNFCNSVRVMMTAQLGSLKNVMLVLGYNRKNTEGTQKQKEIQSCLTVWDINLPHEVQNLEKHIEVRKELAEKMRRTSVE

B1: CA RAB7L1: constitutively active RAB7L1 (Q67L, deficient in GTPase activity); in b298 the same words denote the fly transgene (protein, UniProt O14966 1-203, looked up, variant Q67L)
Ras-related protein Rab-7L1: MGSRDHLFKVLVVGDAAVGKTSLVQRYSQDSFSKHYKSTVGVDFALKVLQWSDYEIVRLQLWDIAGLERFTSMTRLYYRDASACVIMFDVTNATTFSNSQRWKQDLDSKLTLPNGEPVPCLLLANKCDLSPWAVSRDQIDRFSKENGFTGWTETSVKENKNINEAMRVLIEKMMRNSTEDIMSLSTQGDYINLQTKSSSWSCC
- LRRK2 G2019S dopamine neuron loss phenotype [1]: rescued the LRRK2 G2019S dopamine neuron loss phenotype
- LRRK2 mutation-induced neurite length phenotype [2]: significantly suppressed

B2: RAB7L1 protein in mouse brain lysate (endogenous) (enzyme, UniProt Q91YQ1 1-204, looked up)
chain: MGSRDHLFKVLVVGDAAVGKTSLVQRYSQDSFSKHYKSTVGVDFALKVLQWSDSEMVRLQLWDIAGQERFTSMTRLYYRDASACVIMFDVTNATTFSNSQRWKQDLDSKLTLPSGEPVPCLLLANKSDLSPWAVSRDQIDRFSKENGFTGWTETSVKENKNINEAMRVLVEKMMNNSREDVMSLSTQGNYINLQAKPSSGWTCC
notes: Detected by Western blot (Santa Cruz sc-81924) after LRRK2 immunoprecipitation
- lysosomal phenotypes (swollen lysosomes, reduced lysosomal MPR) [3]: suppressed the lysosomal phenotypes
- co-immunoprecipitation with LRRK2 (LRRK2): effectively co-precipitated
- binding result [4]: binds
- LRRK2 mutation-induced neurite length phenotype [2]: significantly suppressed the LRRK2 mutation-induced neurite length phenotype
- reduced neurite length ([2]; in the context of VPS35 knockdown by shRNA): not rescued
- neurite length ([2]; in the context of overexpression of wild-type LRRK2): did not modify neurite length
